# Test results published in paper PMC6557641.
# Molecular target: Chicken skeletal muscle actin, assembled into filaments (F-actin) (chicken) (UniProt P68139)
# Assay: TIRF microscopy of labeled protein on actin filaments; four-color TIRFM; 1.5 μM Mg-ATP actin (15% Alexa 488-labeled), 50 nM Fim1 (Alexa 405-labeled), 2.5 μM Cdc8 (TMR-labeled), without or with 500 nM Ain1 (Cy5-labeled); fluorescence on two-filament bundles; room temperature
substance,measurement,value
"acetylation mimic tropomyosin AlaSer-Cdc8, fluorescently labeled (TMR or Cy5) (natural protein)",fold of Cdc8 on F-actin bundles with Fim1 and Ain1 against with Fim1 alone,> 100 fold
